This passage reports Kd results from article PMC4990970 (Scientific Reports, 2016).

The term Kd denotes the constant that tells how readily two partners part at equilibrium.

The target of experiment [1] is T1, Calmodulin (CaM) (UniProt P0DP23 1-149).
T1 construct: Calmodulin, full length; apo-CaM (5 mM EGTA) and holo-CaM (10 mM CaCl2) are the same protein; the assays tell them apart; Se-Met-substituted apo-CaM was used for anomalous signals in the structure determination; also called apo-CaM; Ca2+-free CaM; source: Escherichia coli, purified using chromatography techniques
Description: ITC; iTC200, room temperature, 20 mM Tris-HCl pH 7.5, 500 mM NaCl, 10 mM CaCl2 (holo-CaM, presence of calcium); 0.05-0.1 mM in the cell, 0.5-1.0 mM in the syringe. The conditions noted are these: both partners purified. In general terms: Isothermal titration calorimetry measures the heat released or taken up as one component is titrated into another.

Experiment [2] deals with T1, Calmodulin (CaM). The experiment can be described thus: ITC; iTC200, room temperature, 20 mM Tris-HCl pH 7.5, 500 mM NaCl, 5 mM EGTA (apo-CaM, absence of calcium); 0.05-0.1 mM in the cell, 0.5-1.0 mM in the syringe. Conditions: both partners purified.

B1: AtBAG5-IQR (AtBAG5-long with Ile57, Gln58 and Arg62 substituted with alanine) (domain or fragment)
chain: NATAAAARAASGYASYRIRNLYKKISSINREANRVQSIIQRQETVDAIRSDEKERLRMNETLMALLLKLDSVPGLDPTIREARRKVSRKIVGMQEILDSISETKD
notes: AtBAG5, Arabidopsis thaliana, residues 49-153 (AtBAG5-long) with three conserved residues of the IQ motif changed to alanine; also called IQ motif mutant; AtBAG5-IQR mutant; source: Escherichia coli, purified using chromatography techniques
B1: the Kd with Calmodulin (CaM) [1] was 7.14 µM; with Calmodulin (CaM) [2], 1160 µM.
